tested on: Escherichia coli TOP10; test: shrunken log2 fold change of peptide-encoding DNA abundance (4.5 h post-induction vs induction); higher = less antimicrobial activity (less host growth inhibition); details: time post-induction: 4.5 h; library: site-saturation at positions 5, 18, 19, 20
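Note: peptides expressed intracellularly from a pBAD plasmid library in pooled LB shake-flask culture, induced with 0.3% L-arabinose, DNA abundance read by NGS, three biological replicates, DESeq2 with apeglm shrinkage.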

Row | Sequence | shrunken log2 fold change
1 | RRIRMRPPRLPRPRPRPIVTPRP | -0.00781
2 | RRIRIRPPRLPRPRPRPCNAPRP | -0.0751
3 | RRIRWRPPRLPRPRPRPQVAPRP | 0.472
4 | RRIRLRPPRLPRPRPRPGVGPRP | 0.537
5 | RRIRGRPPRLPRPRPRPKCMPRP | 0.209
6 | RRIRGRPPRLPRPRPRPCALPRP | 0.594
7 | RRIRNRPPRLPRPRPRPLTQPRP | -0.328
8 | RRIRQRPPRLPRPRPRPLGYPRP | -0.0704
9 | RRIRVRPPRLPRPRPRPENTPRP | -0.0389
10 | RRIRGRPPRLPRPRPRPEMKPRP | 0.73
11 | RRIRLRPPRLPRPRPRPVRDPRP | -0.105
12 | RRIRSRPPRLPRPRPRPRPWPRP | 0.324
13 | RRIRWRPPRLPRPRPRPRKVPRP | 0.302
14 | RRIRRRPPRLPRPRPRPMWTPRP | -0.132
15 | RRIRYRPPRLPRPRPRPHSVPRP | -0.07
16 | RRIRERPPRLPRPRPRPFSTPRP | -0.0931
17 | RRIRFRPPRLPRPRPRPYIIPRP | -0.395
18 | RRIRSRPPRLPRPRPRPSPYPRP | -0.672
19 | RRIRGRPPRLPRPRPRPIRSPRP | -0.0333
20 | RRIRNRPPRLPRPRPRPIRAPRP | -0.0265
21 | RRIRDRPPRLPRPRPRPAPSPRP | 0.367
22 | RRIRYRPPRLPRPRPRPRAFPRP | -0.677

Row | Sequence | shrunken log2 fold change
23 | RRIRHRPPRLPRPRPRPARYPRP | 0.0518
24 | RRIRLRPPRLPRPRPRPPTSPRP | 0.493
25 | RRIRCRPPRLPRPRPRPQSIPRP | -0.394
26 | RRIRVRPPRLPRPRPRPDRMPRP | -0.268
27 | RRIRMRPPRLPRPRPRPDMVPRP | 1.9
28 | RRIRYRPPRLPRPRPRPFYPPRP | -0.747
29 | RRIRHRPPRLPRPRPRPGKPPRP | -0.00366
30 | RRIRLRPPRLPRPRPRPYKDPRP | -0.269
31 | RRIRLRPPRLPRPRPRPDLMPRP | -0.145
32 | RRIRGRPPRLPRPRPRPYAFPRP | 0.413
33 | RRIRYRPPRLPRPRPRPCLIPRP | -0.00819
34 | RRIRARPPRLPRPRPRPFPKPRP | 0.178
35 | RRIRLRPPRLPRPRPRPCFDPRP | -0.293
36 | RRIRPRPPRLPRPRPRPSYLPRP | -0.562
37 | RRIRERPPRLPRPRPRPVDRPRP | 0.0364
38 | RRIRIRPPRLPRPRPRPWDTPRP | -0.231
39 | RRIRDRPPRLPRPRPRPPQRPRP | 0.719
40 | RRIRQRPPRLPRPRPRPLGEPRP | 0.0549
41 | RRIRLRPPRLPRPRPRPDNDPRP | -0.228
42 | RRIRIRPPRLPRPRPRPANHPRP | -0.528
43 | RRIRERPPRLPRPRPRPLTMPRP | -0.308
44 | RRIRQRPPRLPRPRPRPTRFPRP | 0.04

Row | Sequence | shrunken log2 fold change
45 | RRIRTRPPRLPRPRPRPMFMPRP | 0.000513
46 | RRIRFRPPRLPRPRPRPDSMPRP | -0.715
47 | RRIRDRPPRLPRPRPRPCSEPRP | 0.283
48 | RRIRHRPPRLPRPRPRPWSLPRP | -0.121
49 | RRIRRRPPRLPRPRPRPAESPRP | 0.256
50 | RRIRNRPPRLPRPRPRPVRMPRP | -0.132
51 | RRIRPRPPRLPRPRPRPRDAPRP | 0.635
52 | RRIRGRPPRLPRPRPRPFFPPRP | 0.154
53 | RRIRSRPPRLPRPRPRPNPTPRP | 0.017
54 | RRIRDRPPRLPRPRPRPNCDPRP | -0.144
55 | RRIRMRPPRLPRPRPRPKQCPRP | 0.208
56 | RRIRSRPPRLPRPRPRPRFFPRP | 0.108
57 | RRIRGRPPRLPRPRPRPNGQPRP | 0.386
58 | RRIRMRPPRLPRPRPRPFQHPRP | 0.0658
59 | RRIRYRPPRLPRPRPRPWVAPRP | -0.481
60 | RRIRLRPPRLPRPRPRPKWWPRP | 0.396
61 | RRIRHRPPRLPRPRPRPMDPPRP | -0.385
62 | RRIRSRPPRLPRPRPRPYPPPRP | -0.377
63 | RRIRKRPPRLPRPRPRPWLVPRP | 0.177
64 | RRIRTRPPRLPRPRPRPFGVPRP | 0.0203
65 | RRIRIRPPRLPRPRPRPEENPRP | -0.306
66 | RRIRTRPPRLPRPRPRPWWTPRP | -0.045

Row | Sequence | shrunken log2 fold change
67 | RRIRLRPPRLPRPRPRPLREPRP | 0.332
68 | RRIRPRPPRLPRPRPRPHPDPRP | -0.0791
69 | RRIRARPPRLPRPRPRPDLSPRP | 0.209
70 | RRIRVRPPRLPRPRPRPMKPPRP | -0.0376
71 | RRIRHRPPRLPRPRPRPRKKPRP | -0.0239
72 | RRIRIRPPRLPRPRPRPSTAPRP | -0.263
73 | RRIRLRPPRLPRPRPRPRPEPRP | 0.799
74 | RRIRSRPPRLPRPRPRPRKWPRP | 0.139
75 | RRIRCRPPRLPRPRPRPWLEPRP | 0.117
76 | RRIRTRPPRLPRPRPRPDKSPRP | -0.0816
77 | RRIRSRPPRLPRPRPRPKDMPRP | -0.123
78 | RRIRIRPPRLPRPRPRPSADPRP | -0.235
79 | RRIRHRPPRLPRPRPRPLVMPRP | -0.0133
80 | RRIRMRPPRLPRPRPRPLINPRP | -0.231
81 | RRIRIRPPRLPRPRPRPLTMPRP | -0.181
82 | RRIRSRPPRLPRPRPRPTKAPRP | 0.266
83 | RRIRVRPPRLPRPRPRPMSCPRP | 0.0534
84 | RRIRFRPPRLPRPRPRPGMKPRP | -0.0551
85 | RRIRCRPPRLPRPRPRPMPRPRP | 0.0702
86 | RRIRWRPPRLPRPRPRPKKEPRP | -0.224
87 | RRIRNRPPRLPRPRPRPDTVPRP | -0.0521
88 | RRIRHRPPRLPRPRPRPAAYPRP | -0.206

Row | Sequence | shrunken log2 fold change
89 | RRIRTRPPRLPRPRPRPMIQPRP | -0.146
90 | RRIRCRPPRLPRPRPRPIIWPRP | -0.178
91 | RRIRLRPPRLPRPRPRPMPNPRP | -0.0177
92 | RRIRFRPPRLPRPRPRPQIHPRP | -0.995
93 | RRIRRRPPRLPRPRPRPWGRPRP | 0.101
94 | RRIRCRPPRLPRPRPRPKDYPRP | -0.644
95 | RRIRNRPPRLPRPRPRPKEGPRP | -0.0345
96 | RRIRARPPRLPRPRPRPFWLPRP | 0.0704
97 | RRIRVRPPRLPRPRPRPYRKPRP | -0.259
98 | RRIRSRPPRLPRPRPRPKLLPRP | 0.325
99 | RRIRGRPPRLPRPRPRPNSRPRP | 0.107
100 | RRIRWRPPRLPRPRPRPMGIPRP | 0.0704
101 | RRIRRRPPRLPRPRPRPIGDPRP | 0.257
102 | RRIRVRPPRLPRPRPRPTQYPRP | 0.166
103 | RRIRTRPPRLPRPRPRPMYFPRP | -0.53
104 | RRIRWRPPRLPRPRPRPHFHPRP | -0.596
105 | RRIRARPPRLPRPRPRPYLPPRP | 0.0397
106 | RRIRIRPPRLPRPRPRPVASPRP | -0.14
107 | RRIRQRPPRLPRPRPRPVCYPRP | -0.636
108 | RRIRIRPPRLPRPRPRPRVPPRP | 1.5
109 | RRIRARPPRLPRPRPRPTKKPRP | 0.0778

From the supplement of paper PMC9112550, “Optimization of the antimicrobial peptide Bac7 by deep mutational scanning” (BMC Biology, 2022)
